Experimental findings from publication PMC9323360, “Cloning, Expression, Purification, and Characterization of β-Galactosidase from Bifidobacterium longum and Bifidobacterium pseudocatenulatum” (Molecules, 2022) are described below.

Substrate in the data set: O=[N+]([O-])c1ccccc1O[C@@H]1O[C@H](CO)[C@H](O)[C@H](O)[C@H]1O
Nature of the data set: purified protein.

B1: BPGLB1 (Bifidobacterium pseudocatenulatum) (protein)
chain: MHRTFKWPELLTDNGKGIAYGGDYNPDQWSEDVWDEDVRLMKQAGVNTVAVAIFSWDRIQPEENRWDFGWLDRIIDKLGKAGIAVDLASATATAPLWLYEKHPEVLPQDKFGHPVNAGSRQSWSPTSPVFKEYALTLCRKLAERYGTNPYVTAWHMGNEYGWNNRYDYSDNALNAFRLWCERKYGTIENLNKAWGTTFWGQEMNGFHEVLIPRFMGADSMVNPGQKLDFERFGNDMLLDFYKAERDAIAEICPDKPFTTNFMVSTDQCCMDYADWAEEVDFVSNDHYFHEGESHIDELFCSDALMDSLALGKPWYVMEHSTSAVQWKPLNARKRKGETVRDSIAHVAMGADAINFFQWRASAFGAESFHSALVPHAGEDTKLFRQVCELGAALKTLGDAGVQGTELEQSDTAILFSAESEWATRSETLPSMKLNHWHDVRDWYRAFLNAGTRADIVPLKYDWNAYKTVVLPTVIMLSAEDTQRLADFAAAGGRVVIGYATGLIDENFHTWLGGYPGAGDGLLREMLGIRGEEFNILGAEAEGEPSEIRLSSGAVTRLWQNDVNVDGERAQVLATYEGEEADEWELDGTAAITRNPYGSGETYFVGCDLNVADLTEFVRENIVEDSANVANPADSDVLHTVRKSADATFDFYLPRGKKEIALQGIEGEPIYLFQAEAEERTGSYTVHRNGVLVVKRA
As to B1, for the setting “pH 6.0, 45 °C”, the Km (commonly the substrate concentration at which the rate is half of its maximum) was found to be 1300 ± 300 µM, the Vmax is given as 1.1 ± 0.1 (oNPG), the kcat (usually the maximal rate divided by the concentration of active sites) came out at 0.5 ± 0.02 s⁻¹ and the kcat/Km was 0.36 (oNPG).

B2: BLGLB1 (Bifidobacterium longum) (protein)
chain: MTTRRTFRWPSLLTESGRGIAFGGDYNPDQWSEETLDEDIRLMVQAGVNTVALAIFSWDKIEPREGEFTFEWLDHVIDKLGAAGIAVDLASATATAPLWLYERHPEVLPIDRYGHVVNAGSRQSWQPTSPVLKEYALRLCRKLAEHYKDNPYVTAWHMGNEYGWNNRYDYSDNALAAFRTWCEAKYGTVDALNEAWGTAFWSQHVNSFDEVLLPRHMGGDSMVNPPQQLDYERFGNDMLLDFYKAERDAIEEICPGKPFTTNFMVSTDQCTMDYAQWANEVDFVSNDHYFHEGESHLDELACSDALMDSLALGKPWYVMEHSTSAVQWKPLNMRKRAGELMRDSLAHVAMGADAINFFQWRQSASGAEAFHSAMVPHAGSDTKLFRGVCELGAALKTLSDAGVQDTELKRADTAILFSAESEWATRSETLPSMKLNHWHDVRDWYRGYLDAGARADVVPLAYDWSGYQTIVLPTVIALSDEDTRRIADFAENGGTVIVGYATGLIDEHFHIGLGGYPGAGNGLLRDMLGIRSEEFNILGEEAEDEPAEIGLSNGLTTRLWQNDVTSVAPDTRVLATYVGTAAADWELDGVPAITSHPHGQGAAIYVGCDLGRHDITHLLKELNTTAPSDERAPDQRPGGGEINAATTTAAAATHDPRILHTIRQSSDGTIRFDFYLNRSKQPVAVNGVEGDPIIAHRCETDAVGYTLNRNAILIAKTSC
As for B2, under “pH 5.5, 45 °C”, the Km was 1900 ± 100 µM, the Vmax is listed as 3700 ± 100 (oNPG), the kcat turned out to be 1700 ± 40 s⁻¹ and the kcat/Km is on record as 870 (oNPG).
